The text below walks through data of the supplement of paper PMC12042874.

± gives the uncertainty stated by the source.

The data set can be described thus: amyloid nucleation score (Sup35N fusion, yeast selection) (log enrichment); library NNK1; higher = more nucleation; inactive = no reads after selection. Summed up:
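The nucleation score is the DiMSum log enrichment of output over input reads, centred on the mode score of non-aggregating sequences. Only sequences with 100 or more input reads were scored, using Illumina sequencing of input and output plasmid inserts. Psi-negative yeast expressing Sup35N fused to peptides of 20 random codons were induced 24 hours with 100 μM copper sulfate and grown 7 days at 30°C on medium lacking adenine and uracil.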
Regarding CKDCYLITGVVINYPSRPLW, the amyloid nucleation score was found to be 5.985 ± 0.049.
As to NDWIFD, the amyloid nucleation score entry was “inactive”.
For YHWVMTASVCSPGELNYRSN the value was 0.363 ± 0.78; for GYEHVKG, -0.195 ± 0.46.
In turn, ICYIPADFVKPAMVNLYLAM registered an amyloid nucleation score of 2.99 ± 0.11.
The result for WMNFWHLFSVFLLFSAICWF reads -0.006 ± 0.61; that for NRFYYKARCRQVGHCT, 0.743 ± 0.46; that for FNITYCFRSFSTSVDNGF, 0.436 ± 0.55.
The result for LEASSIISSRTPG reads -0.93 ± 2.4.
Take TWRNNLKWHMYTYLLPAHIG: the amyloid nucleation score was -0.42 ± 0.46.
The result for TASNDYLDIDPSMDQSRWCG reads 0.518 ± 0.27; that for STYPLEEYKGSGCLAG, -0.522 ± 0.39.
Regarding PNFMMIWWVSTLRHNFTGLC, the amyloid nucleation score is 2.19 ± 0.31.
The result for MLEGMRRWNNIALVVIRGVG reads -0.556 ± 1.1; that for AFMDKLMSPGEVIEVAL, 1.29 ± 0.84; that for FCHYTVLYDSPTLLVRVTWA, -0.681 ± 0.85.
The result for VMKLAVRR reads -0.114 ± 0.91; that for NCYGYVEKWWGVCTNDPLGR, -0.133 ± 0.25.
For NCFRLLCFRGLVGQRGL the value was 0.141 ± 0.59; for PYPYAISRYVFMVSNSDMFM, 4.53 ± 0.054.
The substance RFLVFPRFCCTRNKPRSETL had an amyloid nucleation score of 0.616 ± 1.2.
For YCSKRFLVKRNFLLFYNCDF the value was 1.03 ± 0.5; for RAVVW, 0.695 ± 0.8; for FTCKWRVGFWTPVSDPV, -1.27 ± 0.7.
The result for HCTRINVHFYNIYTVLVSFS reads 5.33 ± 0.073; that for CFVVCDMAF, “inactive”; that for FVLLELVSVVRVLHYDGIWD, 0.079 ± 0.51.
Substance SFYYWHPIALVSMVYK had an amyloid nucleation score of 5.89 ± 0.073.
The result for WYVLARGMYENTLVGSCSMV reads 6.13 ± 0.088; that for FLVCLFINVVTPRTYHLWVY, -0.174 ± 0.49.
The result for SMDLHMYSKFMRYSVFVCNL reads 1.14 ± 0.79.
Substance PFVQRFCL gave an amyloid nucleation score of 0.486 ± 0.49.
Substance YRFFCCVGHITSFVFLVGNV came in with an amyloid nucleation score of 5.25 ± 0.054.
The result for KLSFK reads -0.227 ± 1.9; that for NFGAQRYHSRLLL, -0.223 ± 0.59.
Consider VIGLVLARLYFVQIEVLLHR, for which the amyloid nucleation score was 1.24 ± 0.61.
Take PPQLHRVEFLIVSGR: the amyloid nucleation score is -0.859 ± 1.4.
For AISDFMGHS the value was -0.825 ± 1.1; for TSCSVSLVWLFLGVRLCVLC, -0.009 ± 0.24.
For LKRVCNS the value was 0.002 ± 0.63; for DTINAGWSHLEARCLRFLHV, -0.795 ± 0.38; for TNVFGILYFEYFLVLDG, 0.208 ± 0.3.
The result for GLVNLADTGTVVDPSKGWLG reads -0.441 ± 0.61; that for RSQVSSFTYSPSRATPKRRL, 0.508 ± 0.5; that for KSVAIAPYDGCVMFSKQTWG, -0.025 ± 0.63.
Substance SRTHRDGTCYHSGTVKVHLP registered an amyloid nucleation score of -1.64 ± 2.7.
For TEQGMWHSLAGGR the value was “inactive”.
For FRSLMLLDFTYHVVSGLRYK the value was -0.609 ± 1.9; for LWRLEWLLSGQRGTSPAVRV, 0.764 ± 0.55; for VGCKP, -0.24 ± 0.75.
The result for VMLAGSDWLNGFRAESFCGI reads -1.35 ± 2.1; that for ELKTFTDKIGG, “inactive”; that for TLNIVHLYME, 4.5 ± 0.065.
In the case of FTVLWCRSMLGC, the amyloid nucleation score is -0.111 ± 0.4.
In turn, EVIIIGRSIIVLGMGGTKFW yielded an amyloid nucleation score of 1.72 ± 0.24.
For FDKFKNSTVREFMWVEFSVG the value was 0.745 ± 0.74; for DNSRIYLCGSLNCFYFSDVL, 7.656 ± 0.074; for ACDTS, 0.693 ± 0.45.
For ASKKGPWFYSAVSYGLA the value was -0.128 ± 0.34; for LLNQFLTRSASYTRGTESID, 0.295 ± 0.24.
For FLCPRSCHGPNTFDFIMWSF the value was 0.198 ± 0.66; for HHAFFDIPRVRGEYECFAGI, 0.192 ± 0.25; for RMAHVKHFL, 4.52 ± 0.082.
EGWPTSTLSLSRYALLGSPR displayed an amyloid nucleation score of -0.486 ± 0.66.
The result for LRITNAPKLVYVSAQEVNSQ reads 1.47 ± 0.25; that for ECDYDYGTSWSQVSYVRGV, -0.773 ± 1.2.
For LARCRWLVKRVCDGNWCCML the value was 0.569 ± 0.48; for SWMNS, 0.759 ± 0.55.
The result for PLSWTNMKYKGSCVYFMVFF reads -2.14 ± 2.4; that for FDLGHCIDSRRPGLCVMVLV, 0.035 ± 0.34; that for GGCRIYLSSRM, -0.583 ± 0.46.
In turn, LSFNSTSPEIIRTVVMAWC registered an amyloid nucleation score of -1.54 ± 1.7.
For SFCVRQSTVFLMMSWECFRY the value was 1.19 ± 0.8; for KLKGG, -0.27 ± 0.3.
For DCRMFDFLA the value was -0.444 ± 0.38; for RHYSARQWQIWGFCDLPHSR, 0.086 ± 0.66; for FLYWLVDKLG, 0.37 ± 0.51.
The result for LTSGLI reads 0.807 ± 1.
Turning to GFYDRYVNAGMECAGPSSQR, the amyloid nucleation score worked out at 5.24 ± 0.079.
The result for KCYTMHWPGS reads -1.07 ± 1.7; that for SLSRMVGCTTVF, “inactive”; that for KNGRWAWFTSRAHCFGYNFT, -1.14 ± 0.82.
The result for ARFVDYPCALLWARTSR reads -0.375 ± 0.56; that for KCTLYLQFNIEHGCAIFEDK, 2.06 ± 0.64.
Consider EFIIAWVWRLHNWVSGFRHS, for which the amyloid nucleation score stood at 0.343 ± 0.35.
The result for MVRWLNTSRKFT reads 1.06 ± 0.73; that for RMERGKNLQMWEGQEVGAEN, -1.19 ± 0.77.
Turning to EKVILHANCFCITMNRMLYH, the amyloid nucleation score was -0.015 ± 0.39.
WDAGVFWKMYLSTCRTSI came in with an amyloid nucleation score of 0.949 ± 0.54.
With IGQLHFIEITNMREGHPFLA, the amyloid nucleation score was 0.53 ± 0.63.
For VWYWLSNNLDVW the value was 0.809 ± 0.98; for SYPESTTRNF, -0.209 ± 0.39; for IRGLLRFL, 0.007 ± 0.35.
The result for YHGIPFCMFFRVYAVR reads 0.216 ± 1.4; that for IGLFWSFVKKIEVIICVGML, 0.665 ± 0.9.
For GRGTGAVFVYVEWSLYGN the value was -0.036 ± 0.47.
The substance PWNLLGKIVTFV displayed an amyloid nucleation score of 1.09 ± 0.94.
For WTTMFAFAF the value was 1.42 ± 0.44.
GHWDTVGIR yielded an amyloid nucleation score of -0.292 ± 0.28.
The result for FRLLGLTR reads 0.087 ± 0.62; that for TSRNW, -0.626 ± 1.1.
For HVLMLNW the value was 3.05 ± 0.084; for YSIDLIPYRDYGNKTCHGIM, 2.27 ± 0.081.
For YQSHLAIFFRDGHRSSKITN the value was -0.008 ± 1.2; for GRRVFGRYVQINNGPISRFF, 0.266 ± 1.1.
Substance WSLWLRRDFSR had an amyloid nucleation score of 0.76 ± 0.61.
As to CFCFFIVSPMMF, the amyloid nucleation score worked out at 3.89 ± 0.056.
For VMSGRCFTRCAFGLQRVPSV the value was 0.033 ± 0.63; for FTQKIFQTFFDHAYNWFSRV, 0.918 ± 0.46.
For MWEALW the value was 0.601 ± 0.54.
For WWFRK the value was 0.654 ± 1.1; for GGLPGNRSYRGWSSIFACLR, 0.021 ± 0.49.
Turning to LYVDH, the amyloid nucleation score entry is “inactive”.
For IETWCVKWFH, the amyloid nucleation score is -0.299 ± 0.32.
The result for WGKYSD reads 0.343 ± 0.7.
In turn, HICSRDVLLRQY came in with an amyloid nucleation score of 1.41 ± 0.8.
The result for PLELPVVFIMSDFSFWRRAQ reads 0.555 ± 0.53.
For the substance LPSVESLHRTTSCVYF, the amyloid nucleation score was -0.561 ± 1.2.
For VVSDRRFYLLKFKSGVLSLV the value was -0.043 ± 0.31; for FFTRGIVMQRRQHWNGVYGS, 0.737 ± 0.49.
As for GTNWDMLCYIVLTYGVVRAF, the amyloid nucleation score was -0.116 ± 0.51.
For IAVFWCFKMNWALMMRTKDM the value was 0.13 ± 0.38.
The result for LSDLDIRKQLVYMRSIRVGT reads -0.339 ± 0.94; that for WRFEYWFRGIHYCIYNYFC, -0.011 ± 0.89; that for GWIGCHDWGLRLIAHKMRGR, 0.938 ± 0.88.
Turning to ACWYLKRFLIMGKLSWS, the amyloid nucleation score was -0.15 ± 0.3.
For SRPNDMFTALVYTCYLPNK the value was -0.539 ± 0.6.
The result for KMRCDGLEQRLRSQSDLLAP reads 0.374 ± 0.45.
For ILYVNNFIFLH, the amyloid nucleation score was 7.59 ± 0.056.
The result for VSIRTGGTCHYT reads 0.123 ± 0.28; that for FCNLYGKQTYLSGFGIHCVV, 0.127 ± 0.23; that for RGHAFLFVLYTFQLKAYAS, -0.033 ± 0.3.
For MCVGRDISGEWSYYQCMVEL the value was 0.495 ± 0.28; for FFTLHAFQ, “inactive”.
The result for TLHVEWSSVIAMLFKMSCGL reads -0.785 ± 0.88; that for VVLLQLQCHEPFYSPKPQQA, -0.048 ± 0.51.
FRMNRKVRC registered an amyloid nucleation score of 0.082 ± 0.29.
Take TLYIYAMEDSGGFEDGGMCI: the amyloid nucleation score turned out to be 4.18 ± 0.1.
The result for FELICNRNGNSPRYAFKKIP reads 0.976 ± 0.35; that for ADTCGCGWDSRRKCFMGGYS, -0.187 ± 0.52.
For TKHRELVLPGLVFTTEYCLV the value was -0.693 ± 1.6.
For FWLLS the value was -0.153 ± 1.
VKFKGTTLCYIFDMDFMHGI: the amyloid nucleation score came to 0.948 ± 0.14.
